Assay results: publication PMC2928003
Several values for one entry are separate records, joined by “and”; a condition that tells them apart may be missing. Identical values can stand only once.

What was measured:
[1] = biological target: nonmuscle myosin IIB (mouse (endogenous in NIH3T3)) (UniProt Q61879); assay: co-IP
the DH–PH domains = assay: pull-down
[2] = biological target: Tiam1 DH–PH domain (aa 1048–1406), His-tagged (UniProt Q60610); assay: SPR
[3] = biological target: Vav1 DH–PH domain (aa 195–508), His-tagged (UniProt P15498); assay: SPR
Vav1 DH–PH domain (aa 195–508), His-tagged, sequence (P15498 195-508): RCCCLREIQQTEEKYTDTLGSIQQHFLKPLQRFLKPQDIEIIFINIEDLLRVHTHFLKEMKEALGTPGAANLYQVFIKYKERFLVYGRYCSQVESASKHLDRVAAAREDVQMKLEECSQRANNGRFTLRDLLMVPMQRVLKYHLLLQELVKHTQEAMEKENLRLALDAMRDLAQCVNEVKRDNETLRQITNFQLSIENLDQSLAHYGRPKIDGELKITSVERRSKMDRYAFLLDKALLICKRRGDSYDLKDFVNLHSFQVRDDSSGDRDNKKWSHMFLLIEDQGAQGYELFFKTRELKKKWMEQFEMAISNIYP

[4] = biological target: βPIX DH–PH domain (aa 100–400), His-tagged (UniProt O55043); assay: SPR
βPIX DH–PH domain (aa 100–400), His-tagged, sequence (O55043 100-400): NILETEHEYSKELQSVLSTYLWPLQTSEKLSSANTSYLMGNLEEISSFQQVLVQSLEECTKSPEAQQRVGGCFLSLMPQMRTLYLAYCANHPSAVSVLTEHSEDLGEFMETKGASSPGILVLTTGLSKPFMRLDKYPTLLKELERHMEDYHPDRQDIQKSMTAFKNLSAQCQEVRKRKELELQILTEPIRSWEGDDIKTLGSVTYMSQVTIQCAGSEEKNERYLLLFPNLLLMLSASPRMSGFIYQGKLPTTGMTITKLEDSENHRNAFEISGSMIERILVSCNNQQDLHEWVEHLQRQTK

[5] = biological target: nonmuscle myosin IIA (mouse (endogenous in NIH3T3)) (UniProt Q8VDD5); assay: co-IP
nonmuscle myosin IIA (mouse (endogenous in NIH3T3)), sequence (Q8VDD5 whole entry): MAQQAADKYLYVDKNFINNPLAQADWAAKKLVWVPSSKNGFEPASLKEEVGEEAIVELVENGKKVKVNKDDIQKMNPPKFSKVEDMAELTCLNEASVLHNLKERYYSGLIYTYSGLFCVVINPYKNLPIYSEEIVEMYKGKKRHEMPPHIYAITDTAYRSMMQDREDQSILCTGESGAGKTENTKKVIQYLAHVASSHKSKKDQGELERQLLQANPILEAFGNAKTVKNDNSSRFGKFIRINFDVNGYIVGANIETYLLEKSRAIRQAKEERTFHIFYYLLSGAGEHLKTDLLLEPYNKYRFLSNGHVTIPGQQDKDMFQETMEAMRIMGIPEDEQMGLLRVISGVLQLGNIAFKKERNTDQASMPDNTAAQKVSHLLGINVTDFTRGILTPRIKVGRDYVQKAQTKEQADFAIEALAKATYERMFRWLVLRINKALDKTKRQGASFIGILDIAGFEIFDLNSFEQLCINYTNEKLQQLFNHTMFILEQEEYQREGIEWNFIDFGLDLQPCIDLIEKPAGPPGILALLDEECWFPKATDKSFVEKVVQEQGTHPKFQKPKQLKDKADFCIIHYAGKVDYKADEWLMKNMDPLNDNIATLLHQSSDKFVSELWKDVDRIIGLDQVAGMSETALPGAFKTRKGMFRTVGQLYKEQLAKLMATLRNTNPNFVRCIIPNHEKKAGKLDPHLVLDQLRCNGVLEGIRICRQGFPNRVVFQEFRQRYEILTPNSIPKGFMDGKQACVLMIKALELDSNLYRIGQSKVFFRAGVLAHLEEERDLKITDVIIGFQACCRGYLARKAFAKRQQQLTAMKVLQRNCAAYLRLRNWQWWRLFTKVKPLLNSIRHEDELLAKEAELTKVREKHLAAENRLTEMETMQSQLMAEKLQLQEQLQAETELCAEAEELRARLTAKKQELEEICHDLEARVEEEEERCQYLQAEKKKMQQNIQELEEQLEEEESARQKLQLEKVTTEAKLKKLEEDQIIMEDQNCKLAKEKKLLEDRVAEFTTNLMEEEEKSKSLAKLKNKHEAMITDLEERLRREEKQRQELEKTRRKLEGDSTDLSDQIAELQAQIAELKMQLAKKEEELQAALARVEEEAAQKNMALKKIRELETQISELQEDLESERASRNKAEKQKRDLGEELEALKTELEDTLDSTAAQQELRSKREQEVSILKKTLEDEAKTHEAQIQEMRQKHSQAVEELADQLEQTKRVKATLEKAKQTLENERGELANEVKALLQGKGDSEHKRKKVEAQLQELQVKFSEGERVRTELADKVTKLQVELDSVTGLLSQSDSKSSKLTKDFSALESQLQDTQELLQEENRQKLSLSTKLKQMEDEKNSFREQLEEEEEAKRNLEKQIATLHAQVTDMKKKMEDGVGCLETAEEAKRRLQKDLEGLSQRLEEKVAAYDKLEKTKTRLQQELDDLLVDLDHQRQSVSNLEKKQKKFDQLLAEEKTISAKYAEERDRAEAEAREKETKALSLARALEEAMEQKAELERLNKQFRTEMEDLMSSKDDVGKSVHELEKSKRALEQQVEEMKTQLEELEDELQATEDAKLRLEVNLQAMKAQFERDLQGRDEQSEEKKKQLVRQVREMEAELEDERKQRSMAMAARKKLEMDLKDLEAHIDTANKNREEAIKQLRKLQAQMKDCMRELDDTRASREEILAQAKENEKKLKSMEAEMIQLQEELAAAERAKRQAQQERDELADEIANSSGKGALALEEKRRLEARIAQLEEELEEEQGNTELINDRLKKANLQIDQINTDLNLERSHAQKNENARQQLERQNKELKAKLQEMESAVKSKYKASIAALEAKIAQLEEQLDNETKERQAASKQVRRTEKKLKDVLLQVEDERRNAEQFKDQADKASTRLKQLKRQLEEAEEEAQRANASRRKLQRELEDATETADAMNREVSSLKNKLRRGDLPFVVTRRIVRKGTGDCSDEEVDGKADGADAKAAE

[6] = biological target: nonmuscle myosin IIB (rat (endogenous in PC12 and rat brain)) (UniProt Q9JLT0); assay: co-IP
nonmuscle myosin IIB (rat (endogenous in PC12 and rat brain)), sequence (Q9JLT0 whole entry): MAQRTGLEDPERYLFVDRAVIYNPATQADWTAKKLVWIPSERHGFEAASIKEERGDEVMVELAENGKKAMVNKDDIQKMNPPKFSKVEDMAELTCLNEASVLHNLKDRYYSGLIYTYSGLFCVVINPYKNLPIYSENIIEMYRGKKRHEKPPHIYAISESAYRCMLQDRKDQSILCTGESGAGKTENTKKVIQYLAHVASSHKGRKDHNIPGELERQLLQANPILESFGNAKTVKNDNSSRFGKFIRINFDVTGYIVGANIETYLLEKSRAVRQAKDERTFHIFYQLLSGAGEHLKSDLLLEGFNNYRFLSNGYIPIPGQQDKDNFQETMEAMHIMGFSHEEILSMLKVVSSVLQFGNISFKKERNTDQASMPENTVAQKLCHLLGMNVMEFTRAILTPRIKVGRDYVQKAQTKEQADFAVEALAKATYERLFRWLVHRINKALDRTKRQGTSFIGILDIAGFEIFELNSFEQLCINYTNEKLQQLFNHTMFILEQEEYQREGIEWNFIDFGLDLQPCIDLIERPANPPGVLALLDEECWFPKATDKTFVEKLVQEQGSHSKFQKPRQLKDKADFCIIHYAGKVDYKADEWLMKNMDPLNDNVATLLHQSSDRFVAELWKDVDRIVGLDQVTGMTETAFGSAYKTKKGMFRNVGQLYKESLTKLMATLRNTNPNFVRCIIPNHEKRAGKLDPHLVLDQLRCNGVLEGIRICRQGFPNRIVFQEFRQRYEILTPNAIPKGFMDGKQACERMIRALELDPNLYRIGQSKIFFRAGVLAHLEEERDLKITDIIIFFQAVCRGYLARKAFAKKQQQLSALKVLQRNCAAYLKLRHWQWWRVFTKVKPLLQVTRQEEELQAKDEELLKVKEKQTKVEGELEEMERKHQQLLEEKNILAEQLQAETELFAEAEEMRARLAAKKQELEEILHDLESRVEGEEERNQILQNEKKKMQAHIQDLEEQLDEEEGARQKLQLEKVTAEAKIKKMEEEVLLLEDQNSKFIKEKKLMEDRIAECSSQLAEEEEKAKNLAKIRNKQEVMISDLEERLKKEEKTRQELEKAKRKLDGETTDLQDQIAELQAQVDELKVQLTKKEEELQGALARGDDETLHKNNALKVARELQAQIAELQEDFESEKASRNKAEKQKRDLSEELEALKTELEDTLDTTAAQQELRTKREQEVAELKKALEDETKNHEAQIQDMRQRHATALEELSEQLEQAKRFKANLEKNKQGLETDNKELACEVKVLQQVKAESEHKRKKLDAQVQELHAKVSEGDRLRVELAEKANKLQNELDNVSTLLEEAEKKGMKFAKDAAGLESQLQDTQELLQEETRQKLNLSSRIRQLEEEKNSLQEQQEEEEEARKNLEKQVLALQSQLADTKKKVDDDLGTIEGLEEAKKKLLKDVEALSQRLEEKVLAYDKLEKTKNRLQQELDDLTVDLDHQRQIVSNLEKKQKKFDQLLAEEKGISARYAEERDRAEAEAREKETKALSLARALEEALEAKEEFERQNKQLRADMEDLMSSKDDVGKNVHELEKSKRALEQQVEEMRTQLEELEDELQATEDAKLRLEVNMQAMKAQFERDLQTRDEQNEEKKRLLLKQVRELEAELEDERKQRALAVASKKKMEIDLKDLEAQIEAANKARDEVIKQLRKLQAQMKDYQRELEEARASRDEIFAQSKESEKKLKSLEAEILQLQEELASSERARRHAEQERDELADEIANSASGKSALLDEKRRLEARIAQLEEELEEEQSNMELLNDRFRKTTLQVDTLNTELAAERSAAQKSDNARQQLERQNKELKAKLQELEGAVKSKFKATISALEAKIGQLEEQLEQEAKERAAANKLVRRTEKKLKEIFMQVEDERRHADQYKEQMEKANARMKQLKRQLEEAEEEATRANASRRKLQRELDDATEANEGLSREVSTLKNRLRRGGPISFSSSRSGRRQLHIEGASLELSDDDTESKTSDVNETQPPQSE

nonmuscle myosin IIB (mouse (endogenous in NIH3T3)), sequence (Q61879 whole entry, the tested form may be a part): as the sequence (Q9JLT0 whole entry) above, with K150M, K170E, T452A, N652T, G933E, M1304I, G1389S, E1969D counted along it
Tiam1 DH–PH domain (aa 1048–1406), His-tagged, sequence (Q60610 1048-1406): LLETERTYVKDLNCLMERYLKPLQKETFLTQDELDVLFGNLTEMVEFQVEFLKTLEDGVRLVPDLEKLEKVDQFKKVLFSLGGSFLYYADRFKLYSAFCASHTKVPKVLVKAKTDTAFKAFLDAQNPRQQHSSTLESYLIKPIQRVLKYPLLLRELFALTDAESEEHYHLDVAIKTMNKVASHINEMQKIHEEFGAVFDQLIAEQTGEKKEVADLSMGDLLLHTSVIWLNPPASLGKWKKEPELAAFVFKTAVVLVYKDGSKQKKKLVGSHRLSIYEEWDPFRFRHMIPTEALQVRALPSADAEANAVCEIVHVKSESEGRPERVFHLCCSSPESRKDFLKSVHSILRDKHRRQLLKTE

Dbl (natural protein)
percent of the GEF of the lysate found in the MIIB IP [1]: 1.3%

skeletal muscle myosin II (from UniProt Q28641 1-1938; P02602 1-192; P02608 1-170) (complex)
fold of association with F-actin over without F-actin (the DH–PH domains): 2 fold and 4 fold | Kd [2]: 290 nM | Kd [3]: 390 nM | Kd [4]: 260 nM

Trio, Q0KL02 1-3102 (natural protein)
percent of the GEF of the lysate found in the MIIA IP [5]: 10.7% | percent of the GEF of the lysate found in the MIIB IP [1]: 8.7%

LARG (natural protein)
percent of the GEF of the lysate found in the MIIB IP [6]: 1%

Tiam1 (natural protein)
percent of the GEF of the lysate found in the MIIB IP [6]: 1.6%

kalirin, P97924 1-2959 (natural protein)
percent of the GEF of the lysate found in the MIIB IP [6]: 5.6%

FGD1 (natural protein)
percent of the GEF of the lysate found in the MIIB IP [6]: 8.1%
